Data published in PMC11172311, “Structural and Interactional Analysis of the Flavonoid Pathway Proteins: Chalcone Synthase, Chalcone Isomerase and Chalcone Isomerase-like Protein” (International Journal of Molecular Sciences, 2024).

Legend:
[1] = substrate: O=C(/C=C/c1ccc(O)cc1)c1c(O)cc(O)cc1O; assay: steady-state kinetics (Km); format: biochemical, Sorghum bicolor
[2] = substrate: O=C(/C=C/c1ccc(O)cc1)c1ccc(O)cc1O; assay: steady-state kinetics (Km); format: biochemical, Sorghum bicolor
[3] = substrate: O=C(/C=C/c1ccc(O)cc1)c1c(O)cc(O)cc1O; assay: purified protein; format: biochemical, Panicum virgatum
[4] = substrate: CC(C)(COP(=O)(O)OP(=O)(O)OC[C@H]1O[C@@H](n2cnc3c(N)ncnc32)[C@H](O)[C@@H]1OP(=O)(O)O)[C@@H](O)C(=O)NCCC(=O)NCCSC(=O)/C=C/c1ccc(O)cc1; assay: steady-state kinetics, LC-MS/MS (Km); format: biochemical, Panicum virgatum; details: malonyl-CoA (co-substrate)

B1: SbCHI (chalcone isomerase, Bmr30) (Sorghum bicolor) (protein)
chain: MAVPEVVVEGVVFPPVARPPGSAGSHFLGGAGVRGIEIGGNFIKFTAIGVYLEDAAVSALAKKWAGKTADELASDAAFFRDVVTGDFEKFTRVTMLLPLTGEQYAGKVTENCVAFWKAVGLYTDAEGVAVEKFKEAFKPETFPPGASILFTHSSTGVLTVAFSKDSSVPASGGVAIENKHLCEAVLESIIGEHGVSPAAKLSLAARVSELLTKGTAGAADAPQAEPVSVTA
notes: recombinant SbCHI
- Km [1]: 16.55 ± 2.08 µM
- kcat [1]: 2890 ± 144 s⁻¹
- kcat/Km [1]: 1.74e+08 M⁻¹ s⁻¹
- Km [2]: 1.585 ± 0.929 µM
- kcat [2]: 0.239 ± 0.0274 s⁻¹
- kcat/Km [2]: 151000 M⁻¹ s⁻¹

B2: PvCHI (chalcone isomerase) (Panicum virgatum) (protein)
chain: MAAVSEVAVDGVVFPPVARPPGSGRSHFLAGAGVRGMEIGGNFIKFTAIGVYLEEGAAVSALAKKWAGKSADELAADAAFFRDVVTGDFEKFTRVTMILPLTGEQYSGKVTENCVAYWKAVGVYTDAEGAAVDKFKEAFKPETFPPGASILFTHSPAGVLTVAFSKDSSVPESGGVAIDNKPLCEAVLESIIGEHGVSPAAKLSVAARVSELLKEASPAGGAPQAAAEPAVPVSA
notes: recombinant, N-terminal 6×-His tag
- Km [3]: 16.04 ± 6.28 µM
- kcat [3]: 8010 ± 1180 s⁻¹
- kcat/Km [3]: 5e+08 M⁻¹ s⁻¹

B3: PvCHS (chalcone synthase) (Panicum virgatum) (protein)
chain: MAGAAAAVTVEEVRKAQRASGPATVLAIGTATPANCVHQADYPDYYFRVTKSDHLTDLKEKFKRMCDKSMIRKRYMHLTEEFLAENPNMCAYMAPSLDARQDIVVVEVPKLGKAAAQKALKEWGQPRSRITHLVFCTTSGVDMPGADYQLTKLLGLRPSVNRLMMYQQGCFAGGTVLRVAKDLAENNRGARVLVVCSEITAVTFRGPSESHLDSLVGQALFGDGAAAVIVGADPDERAERPLFQLVSAAQTLLPDSEGAIDGHLREVGLTFHLLKDVPGLISKNIERALEAAFAPLGISDWNSIFWVAHPGGPAILDQVEAKVSLDKARMRATRHVLAEYGNMSSACVLFILDEMRKRSAEDGCATTGEGLDWGVLFGFGPGLTVETVVLHSVPITAGAAAA
notes: as for B2
- Km [4]: 0.1303 ± 0.0319 µM
- kcat [4]: 0.00695 ± 0.00077 s⁻¹
- kcat/Km [4]: 53300 M⁻¹ s⁻¹
